We go through seven molecules from patent US20220348665A1 (ABL BIO, published 2022).

Test [1] addresses T1, human IGF1R extracellular domain, recombinant, His tag at C-terminus (human, UniProt P08069 31-932).
T1 construct: also called human IGF1R ECD; ECD of IGF1R
Briefly: SPR (Biacore T200), His-tagged human IGF1R ECD captured by anti-His antibody on CM4 chip, 1564 IgG as analyte, 25 C, fit Bivalent Analyte; upper panel. (In general: Surface plasmon resonance follows binding to a sensor surface in real time, without labels.)

The target in test [2] is T1, human IGF1R extracellular domain, …. Briefly: ELISA, human IGF1R coated, anti-human Fab HRP.
For test [3] the target is unchanged. The experiment in a line: SPR (Biacore T200), His-tagged human IGF1R ECD captured by anti-his antibody on CM4 chip, bivalent model.
Test [4] shares this target. Briefly: SPR (Biacore T200), His-tagged human IGF1R ECD captured by anti-His antibody on CM4 chip, 1564 IgG as analyte, 25 C, fit Bivalent Analyte; lower panel.
For test [5], the target named is T2, alpha-synuclein aggregates (human alpha-synuclein, fibril) (human, UniProt P37840 1-140). The experiment in a line: SPR (BIAcore T200), antibody captured on protein A chip, 1:1 model.
Test [6] has as its target T2, alpha-synuclein aggregates (human …). The experiment in a line: sandwich ELISA: antibody coated at 0.04 to 400 nM, 2000 ng/ml alpha-synuclein aggregates, biotin-conjugated antibody and HRP-streptavidin; value is C of the 4-P fit table under the plot, which the text calls EC50. On the technique in general: In an ELISA, binding on a coated surface is turned into a signal by an enzyme label.

For test [7] the target is unchanged. The experiment in a line: SPR (BIAcore T200), antibody captured on Protein A chip, alpha-synuclein fibril as analyte (file ProteinA-Fibril-main-5th), 25 C, fit 1:1 Binding.
For test [8] the target is unchanged. The experiment in a line: ELISA on coated alpha-synuclein aggregates, antibody 5-fold dilutions from 400 nM, anti-human Fc-HRP; value is C of the 4-P fit table under the plot.
The target is the same in test [9]. Briefly: ELISA on alpha-synuclein aggregates coated at 1 ug/ml, antibody 5-fold dilutions from 400 nM, anti-human Fc-HRP; value is C of the 4-P fit table under the plot.
In test [10] the target is T3, monkey IGF1R, recombinant, His tag at C-terminus (monkey).
T3 construct: also called Monkey IGF1R (National Research Council Canada)
Briefly: ELISA, monkey IGF1R coated, anti-human Fab HRP.

Test [11] has as its target T4, human IGF1R, endogenous, on the surface of breast cancer cell lines (MCF-7, JIMT-1, BT474) (human, UniProt P08069 31-1367).
T4 construct: also called endogenous IGF1R on the cell surface; MCF-7 cell line
Briefly: FACS on MCF-7 cells, antibody 10 ug/mL (2nd Ab only 2.86, not treated 1.88).

Test [12] has as its target T2, alpha-synuclein aggregates (human …). The experiment in a line: SPR (BIAcore T200), antibody captured on Protein A chip, alpha-synuclein fibril as analyte (file ProteinA-Fibril-main-5th), 25 C, fit 1:1 Binding. The source holds these as a separate data set.
For test [13] the target is unchanged. The description is as above. The source holds these as a separate data set.
The target is the same in test [14]. The experiment in a line: sandwich ELISA, antibody coated, aggregates 2000 ng/ml.
In test [15] the target is T1, human IGF1R extracellular domain, …. Briefly: ELISA on coated IGF1R, antibody 5-fold dilutions from 400 nM, anti-human Fc-HRP; C of the 4-P fit (D 0.945, R^2 0.985), extrapolated: curve at baseline up to 16 nM, about 0.2 at 80 nM and about 0.75 at 400 nM, no plateau; the text says this monospecific antibody did not bind.
Test [16] shares this target. Briefly: ELISA on coated IGF1R, antibody 5-fold dilutions from 400 nM, anti-human Fc-HRP; C of the 4-P fit (D 2.68), extrapolated: curve at baseline up to about 3 nM, about 0.8 at 80 nM and about 1.75 at 400 nM, no plateau; the text says this monospecific antibody did not bind.
Test [17] addresses T5, mouse IGF1R on bEND.3 mouse brain endothelial cells (mouse, UniProt Q60751 31-1373).
T5 construct: whole, on cells; also called IGF1R expressed on the surface of brain endothelial cells
Briefly: FACS on bEND.3 mouse brain endothelial cells.

Several values for one entry are separate records, joined by “and”; a condition that tells them apart may be missing. Equal values may be shown once. Read-outs that look alike come from different tables or passages of the source.

T5 sequence (Q60751 31-1373): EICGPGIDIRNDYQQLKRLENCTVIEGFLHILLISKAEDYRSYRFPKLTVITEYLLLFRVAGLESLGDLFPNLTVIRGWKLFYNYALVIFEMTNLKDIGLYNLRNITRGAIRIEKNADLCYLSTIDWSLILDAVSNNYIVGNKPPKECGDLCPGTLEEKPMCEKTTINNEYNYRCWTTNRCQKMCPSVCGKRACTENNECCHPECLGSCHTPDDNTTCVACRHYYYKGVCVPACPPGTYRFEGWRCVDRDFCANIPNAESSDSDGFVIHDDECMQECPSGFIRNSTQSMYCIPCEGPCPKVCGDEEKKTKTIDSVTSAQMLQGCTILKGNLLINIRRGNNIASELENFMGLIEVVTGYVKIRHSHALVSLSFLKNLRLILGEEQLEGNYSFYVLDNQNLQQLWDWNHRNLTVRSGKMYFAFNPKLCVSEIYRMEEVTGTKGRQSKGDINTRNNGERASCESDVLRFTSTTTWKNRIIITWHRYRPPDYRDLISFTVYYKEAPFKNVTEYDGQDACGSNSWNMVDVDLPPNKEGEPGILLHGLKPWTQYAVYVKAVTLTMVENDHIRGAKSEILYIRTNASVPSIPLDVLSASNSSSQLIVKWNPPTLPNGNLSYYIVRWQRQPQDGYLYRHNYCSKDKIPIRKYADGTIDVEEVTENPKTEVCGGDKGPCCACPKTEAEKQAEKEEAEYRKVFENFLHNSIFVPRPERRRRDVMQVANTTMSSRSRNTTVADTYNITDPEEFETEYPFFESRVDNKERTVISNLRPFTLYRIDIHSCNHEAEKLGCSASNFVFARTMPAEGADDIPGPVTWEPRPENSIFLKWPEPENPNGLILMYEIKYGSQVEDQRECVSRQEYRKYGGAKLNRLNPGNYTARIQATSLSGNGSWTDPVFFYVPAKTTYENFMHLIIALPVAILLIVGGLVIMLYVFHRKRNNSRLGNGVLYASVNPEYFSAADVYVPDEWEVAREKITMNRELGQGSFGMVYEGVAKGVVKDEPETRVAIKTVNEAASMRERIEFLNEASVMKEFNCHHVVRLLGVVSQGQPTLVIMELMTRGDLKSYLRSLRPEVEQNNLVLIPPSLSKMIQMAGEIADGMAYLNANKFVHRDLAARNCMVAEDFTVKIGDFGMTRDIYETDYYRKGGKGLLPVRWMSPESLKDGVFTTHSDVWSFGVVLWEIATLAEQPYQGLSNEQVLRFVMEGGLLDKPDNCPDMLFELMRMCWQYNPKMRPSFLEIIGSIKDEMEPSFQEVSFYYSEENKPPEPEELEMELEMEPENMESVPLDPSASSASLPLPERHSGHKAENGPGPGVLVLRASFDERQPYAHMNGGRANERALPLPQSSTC

B1: 1564 IgG (anti-IGF1R clone 1564, full IgG1 form) (antibody, V domains shown)
VH: EVQLLESGGGLVQPGGSLRLSCAASGFTFSSYDMSWVRQAPGKGLEWVSAISYDNGNTYYADSVKGRFTISRDNSKNTLYLQMNSLRAEDTAVYYCAKGVLTTLMNWFDYWGQGTLVTVSS
VL: QSVLTQPPSASGTPGQRVTISCTGSSSNIGSNDVSWYQQLPGTAPKLLIYANSNRPSGVPDRFSGSKSGTSASLAISGLRSEDEADYYCGAWDDSLNGYVFGGGTKLTVL
In general, koff refers to the first-order rate constant of dissociation. In general, kon refers to the rate constant with which the complex forms. Broadly, the EC50 is the midpoint of the concentration-response curve. With B1, in test [1], the koff amounted to 2.41e-06 s⁻¹ and the kon worked out at 902 M⁻¹ s⁻¹. For the same molecule, the EC50 in test [2] came to 0.0823 nM. In [3], the Kd came to 2.53 nM. The koff in test [4] amounted to 2.53e-06 s⁻¹.

B2: hu11F11(ver.4) (antibody, human IgG1, V domains shown)
VH: EVQLVESGGGLVQPGGSLRLSCATSGFTFSDFYMEWVRQPPGKRLEWIAASRNKANDYTTEYSASVKGRFTVSRDTSKSSLYLQMNSLRAEDTAIYYCARDAHGKPFAYWGQGTTVTVSS
VL: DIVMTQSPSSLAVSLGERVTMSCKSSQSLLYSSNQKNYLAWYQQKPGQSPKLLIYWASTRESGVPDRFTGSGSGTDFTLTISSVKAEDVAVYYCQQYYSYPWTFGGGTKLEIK
notes: Human IgG1 backbone
For B2, the Kd in [5] came to 0.0204 nM. In test [6], this molecule came in with an EC50 of 12.9 nM. For the same molecule, in test [7], the koff turned out to be 0.000291 s⁻¹ and the kon was determined as 1.07e+06 M⁻¹ s⁻¹.

B3: ch11F11-1564 (bivalent bispecific antibody: chimeric 11F11 IgG with 1564 scFv on each heavy chain) (bispecific antibody, not shown: a dimerising Fc or GST)
heavy (part 1 of 2): EVQLQESGGGLVQPGGSLRLSCATSGFTFSDFYMEWVRQPPGKRLEWIAASRNKANDYTTEYSASVKGRFIVSRDTSQSILYLQMNALRAEDTAIYYCARDAHGKPFAYWGQGTLVTVSA
heavy (part 2 of 2): GGGGSGGGGSGGGGSQSVLTQPPSASGTPGQRVTISCTGSSSNIGSNDVSWYQQLPGTAPKLLIYANSNRPSGVSDRFSGSKSGTSASLAISGLRSEDEADYYCGAWDDSLNGYVFGCGTKLTVLGGGGSGGGGSGGGGSGGGGSEVQLLESGGGLVQPGGSLRLSCAASGFTFSSYDMSWVRQAPGKCLEWVSAISYDNGNTYYADSVKGRFTISRDNSKNTLYLQMNSLRAEDTAVYYCAKGVLTTLMNWFDYWGQGTLVTVSS
light: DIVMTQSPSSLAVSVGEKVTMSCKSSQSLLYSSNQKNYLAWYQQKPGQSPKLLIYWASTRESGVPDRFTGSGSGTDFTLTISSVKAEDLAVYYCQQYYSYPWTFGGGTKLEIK
B3: the 50% effective concentration (EC50) in [8] is 1.5 nM; in test [9] it was 22.7 nM; in test [10], 2.48 nM and 2.21 nM.

B4: hu11F11(ver.2) (antibody, human IgG1, kappa, V domains shown)
VH: EVQLVESGGGLVQPGGSLRLSCATSGFTFSDFYMEWVRQPPGKRLEWIAASRNKANDYTTEYSASVKGRFTVSRDDSKSSLYLQMNSLRAEDTAIYYCARDAHGKPFAYWGQGTTVTVSS
VL: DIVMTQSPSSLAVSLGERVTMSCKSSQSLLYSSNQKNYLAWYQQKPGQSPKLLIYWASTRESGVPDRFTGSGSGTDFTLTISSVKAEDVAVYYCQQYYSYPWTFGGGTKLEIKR
notes: also called hu11F11 WT; humanized antibody 11F11 (ver. 2)
As to B4, the “GeoMean, Internalization at 37° C.” value in test [11] amounted to 3.18. The molecule also returned a Kd in [5] of 0.0596 nM. In test [6], this molecule came in with an EC50 of 15.1 nM. In test [12], this molecule gave a koff of 0.000173 s⁻¹ and a kon of 1.19e+06 M⁻¹ s⁻¹.

B5: hu11F11(ver.3) (antibody, human IgG1, V domains shown)
VH: EVQLVESGGGLVQPGGSLRLSCATSGFTFSDFYMEWVRQPPGKRLEWIAASRNKANDYTTEYSASVKGRFTISRDTSKSSLYLQMNSLRAEDTAIYYCARDAHGKPFAYWGQGTTVTVSS
VL: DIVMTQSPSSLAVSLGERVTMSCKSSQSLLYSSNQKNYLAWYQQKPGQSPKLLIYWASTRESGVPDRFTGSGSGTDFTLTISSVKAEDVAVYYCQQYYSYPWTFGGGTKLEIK
notes: Human IgG1 backbone
In [5], B5 registered a Kd of 0.0316 nM. Moreover, it took 13.4 nM to reach a half-maximal effect in [6] (EC50). For the same molecule, in test [12], the off-rate (koff) was found to be 0.000266 s⁻¹ and the kon was found to be 1.07e+06 M⁻¹ s⁻¹.

B6: Ch11F11 (chimeric 11F11 antibody, human IgG1) (antibody, V domains shown)
VH: EVQLQESGGGLVQPGGSLRLSCATSGFTFSDFYMEWVRQPPGKRLEWIAASRNKANDYTTEYSASVKGRFIVSRDTSQSILYLQMNALRAEDTAIYYCARDAHGKPFAYWGQGTLVTVSA
VL: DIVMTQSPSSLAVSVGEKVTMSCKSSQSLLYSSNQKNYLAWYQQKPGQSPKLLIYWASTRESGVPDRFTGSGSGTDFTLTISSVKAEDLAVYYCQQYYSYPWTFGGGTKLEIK
notes: Chimeric human IgG1
On to B6, for which the koff in [13] came out at 0.000563 s⁻¹. Further, the kon in test [13] came to 609000 M⁻¹ s⁻¹. In addition, in test [5], the Kd worked out at 0.0247 nM. Moreover, the EC50 is 1.27 nM in [8]; 33.8 nM in test [9]; 12.5 nM in [14]; 196 nM in [15]; 201 nM in test [16]. The binding result in test [17] is recorded as “no binding”.

B7: hu11F11(ver.1) (antibody, human IgG1, V domains shown)
VH: EVQLVESGGGLVQPGGSLRLSCATSGFTFSDFYMEWVRQPPGKRLEWIAASRNKANDYTTEYSASVKGRFTISRDDSKSSLYLQMNSLRAEDTAIYYCARDAHGKPFAYWGQGTTVTVSS
VL: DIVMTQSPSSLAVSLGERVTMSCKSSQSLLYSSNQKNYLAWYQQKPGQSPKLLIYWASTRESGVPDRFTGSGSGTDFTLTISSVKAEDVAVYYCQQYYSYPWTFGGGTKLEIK
notes: Human IgG1 backbone
In test [13], B7 came in with a koff of 5.36e-05 s⁻¹ and a kon of 845000 M⁻¹ s⁻¹. A half-maximal response in test [6] (EC50) required 11.5 nM.
